From patent US7026443

Target: HLA-A*6802 (human)
Experiment: competition with 125I-labelled standard peptide on purified HLA, gel filtration

**Q.** How did the binding affinity ratio (IC50 of standard peptide / IC50 of test peptide) turn out when HPV16 E7 86 TLGIVCPI (peptide) was run?
**A.** 0.0047
